# Laboratory results: US20230226096A1 (Orna Therapeutics, Inc., priority 2020, published 2023)
# B1: Avian orthoreovirus segment S1 (nucleic acid, listed as Avian orthoreovirus)
# DNA: GCTTTTTCAATCCCTTGTGTCGATGTTCCCGTATGTCATCTGGTTCATGTAACGGTGCAACTTCTATTTTTGGTAACGTTCACTGTCAGGCAGCGCAAAACTCGGCGGGTGGTGATCTTCAAGCGACTTCCTCTCTTGTTGCTTATTGGCCCTACTTGGCTGCGGGCGGTGGTCTGCTCGTTGTTATTATTATAATTGTTGGCGCTGTTTGTTGTTGCAAGGCTAAGGTTAAAGCGGACGCAGCCCGAAACGTTTTCTACCGAGAGCTGTTCGCACTTAATTCGGGTAAAAGTGATGCAGGACCTCCGATTTACCAGGTTTAGTGTACGACGATTTGAGTTTTCACCTTTCGTCTTAGAGGAGTGCACTACTCCATCTTTCACGACTATAACTAATACCGATCCGGCTCTCTACTTTAACATTGAGTTTCCGTCAAGTCATCGTCTCTCCCCCTTCATTCCAGAACTGTTGTCTCAGCCTTGTACCGTTCACGTTTCATTGATTCGGAGATTCGCTCTCTGTGCAACCTTATCTAGTATTTGTGAATACGACTGTGCGCTACTGCCATCCATCAACGCTATTACGACGATCCCTACACCAGGTGCGTCATCATCTCTGATTGTTCATTGGG
# B2: Caprine Kobuvirus d10 (nucleic acid, listed as Kobuvirus sp.)
# DNA: GGGGCCTCGGCCCCCTCACCCTCTTTTCCGGTGGCCACGCCCGGGCCACCGATACTTCCCTTCACTCCTTCGGGACTGTTGGGGAGGAACACAACAGGGCTCCCCTGTTTTCCCATTCCTTCCCCCTTTTCCCAACCCCAACCGCCGTATCTGGTGGCGGCAAGACACACGGGTCTTTCCCTCTAAAGCACAATTGTGTGTGTGTCCCAGGTCCTCCTGCGTACGGTGCGGGAGTGCTCCCACCCAACTGTTGTAAGCCTGTCCAACGCGTCGTCCTGGCAAGACTATGACGTCGCATGTTCCGCTGCGGATGCCGACCGGGTAACCGGTTCCCCAGTGTGTGTAGTGCGATCTTCCAGGTCCTCCTGGTTGGCGTTGTCCAGAAACTGCTTCAGGTAAGTGGGGTGTGCCCAATCCCTACAAAGGTTGATTCTTTCACCACCTTAGGAATGCTCCGGAGGTACCCCAGCAACAGCTGGGATCTGACCGGAGGCTAATTGTCTACGGGTGGTGTTTCCTTTTTCTTTTCACACAACTCTACTGCTGACAACTCACTGACTATCCACTTGCTCTCTTGTGCCTTTCTGCTCTGGTTCAAGTTCCTTGATTGTTTTTGACTGCTTTTCACTGCTTTTCTTCTCACAATCCTTGCTCAGTTCAAAGTC
# B3: Caprine Kobuvirus d20 (nucleic acid, listed as Kobuvirus sp.)
# DNA: CCCCCTCACCCTCTTTTCCGGTGGCCACGCCCGGGCCACCGATACTTCCCTTCACTCCTTCGGGACTGTTGGGGAGGAACACAACAGGGCTCCCCTGTTTTCCCATTCCTTCCCCCTTTTCCCAACCCCAACCGCCGTATCTGGTGGCGGCAAGACACACGGGTCTTTCCCTCTAAAGCACAATTGTGTGTGTGTCCCAGGTCCTCCTGCGTACGGTGCGGGAGTGCTCCCACCCAACTGTTGTAAGCCTGTCCAACGCGTCGTCCTGGCAAGACTATGACGTCGCATGTTCCGCTGCGGATGCCGACCGGGTAACCGGTTCCCCAGTGTGTGTAGTGCGATCTTCCAGGTCCTCCTGGTTGGCGTTGTCCAGAAACTGCTTCAGGTAAGTGGGGTGTGCCCAATCCCTACAAAGGTTGATTCTTTCACCACCTTAGGAATGCTCCGGAGGTACCCCAGCAACAGCTGGGATCTGACCGGAGGCTAATTGTCTACGGGTGGTGTTTCCTTTTTCTTTTCACACAACTCTACTGCTGACAACTCACTGACTATCCACTTGCTCTCTTGTGCCTTTCTGCTCTGGTTCAAGTTCCTTGATTGTTTTTGACTGCTTTTCACTGCTTTTCTTCTCACAATCCTTGCTCAGTTCAAAGTC
# B4: Caprine Kobuvirus d30 (nucleic acid, listed as Kobuvirus sp.)
# DNA: CTCTTTTCCGGTGGCCACGCCCGGGCCACCGATACTTCCCTTCACTCCTTCGGGACTGTTGGGGAGGAACACAACAGGGCTCCCCTGTTTTCCCATTCCTTCCCCCTTTTCCCAACCCCAACCGCCGTATCTGGTGGCGGCAAGACACACGGGTCTTTCCCTCTAAAGCACAATTGTGTGTGTGTCCCAGGTCCTCCTGCGTACGGTGCGGGAGTGCTCCCACCCAACTGTTGTAAGCCTGTCCAACGCGTCGTCCTGGCAAGACTATGACGTCGCATGTTCCGCTGCGGATGCCGACCGGGTAACCGGTTCCCCAGTGTGTGTAGTGCGATCTTCCAGGTCCTCCTGGTTGGCGTTGTCCAGAAACTGCTTCAGGTAAGTGGGGTGTGCCCAATCCCTACAAAGGTTGATTCTTTCACCACCTTAGGAATGCTCCGGAGGTACCCCAGCAACAGCTGGGATCTGACCGGAGGCTAATTGTCTACGGGTGGTGTTTCCTTTTTCTTTTCACACAACTCTACTGCTGACAACTCACTGACTATCCACTTGCTCTCTTGTGCCTTTCTGCTCTGGTTCAAGTTCCTTGATTGTTTTTGACTGCTTTTCACTGCTTTTCTTCTCACAATCCTTGCTCAGTTCAAAGTC
# B5: Caprine Kobuvirus d40 (nucleic acid, listed as Kobuvirus sp.)
# DNA: GTGGCCACGCCCGGGCCACCGATACTTCCCTTCACTCCTTCGGGACTGTTGGGGAGGAACACAACAGGGCTCCCCTGTTTTCCCATTCCTTCCCCCTTTTCCCAACCCCAACCGCCGTATCTGGTGGCGGCAAGACACACGGGTCTTTCCCTCTAAAGCACAATTGTGTGTGTGTCCCAGGTCCTCCTGCGTACGGTGCGGGAGTGCTCCCACCCAACTGTTGTAAGCCTGTCCAACGCGTCGTCCTGGCAAGACTATGACGTCGCATGTTCCGCTGCGGATGCCGACCGGGTAACCGGTTCCCCAGTGTGTGTAGTGCGATCTTCCAGGTCCTCCTGGTTGGCGTTGTCCAGAAACTGCTTCAGGTAAGTGGGGTGTGCCCAATCCCTACAAAGGTTGATTCTTTCACCACCTTAGGAATGCTCCGGAGGTACCCCAGCAACAGCTGGGATCTGACCGGAGGCTAATTGTCTACGGGTGGTGTTTCCTTTTTCTTTTCACACAACTCTACTGCTGACAACTCACTGACTATCCACTTGCTCTCTTGTGCCTTTCTGCTCTGGTTCAAGTTCCTTGATTGTTTTTGACTGCTTTTCACTGCTTTTCTTCTCACAATCCTTGCTCAGTTCAAAGTC
# B6: Aichivirus A FSS693 (nucleic acid)
# DNA: CACCCATACACCCCCACCCCCTTTTCTGTAACTCAAGTATGTGTGCTCGTAATCTTGACTCCCACGGAATGGATCGATCCGCTGGAGAACAAACTGCTAGATCCACATCCTCCCTCCCCTTGGGAGGACCTCGGTCCTCCCACATCCTCCCTCCAGCCTGACGTATCACAGGCTGTGTGAAGCCCCCGCGAAAGCTGCTCACGTGGCAATTGTGGGTCCCCCCTTCATCAAGACACCAGGTCTTTCCTCCTTAAGGCTAGCCCCGATGTGTGAATTCACATTGGGCAACTAGTGGTGTCACTGTGCGCTCCCAATCTCGGCCGCGGAGTGCTGTTCCCCAAGCCAAACCCCTGGCCCTTCACTATGTGCCTGGCAAGCATATCTGAGAAGGTGTTCCGCTGTGGCTGCCAGCCTGGTAACAGGTGCCCCAGTGTGCGTAACCTTCTTCCGTCTCCGGACGGTAGTGATTGGTTAAGATTTGGTGTAAGGTTCATGTGCCAACGCCCTGTGCGGGATGAAACCTCTACTGCCCTAGGAATGCCAGGCAGGTACCCCACCTTCGGGTGGGATCTGAGCCTGGGCTAATTGTCTACGGGTAGTTTCATTTCCAATTCTTTTATGCTGGAGTC
# modifications: Aichivirus A
# Tested on: HEK293 cells
# Assay type: cell-based, human
# Details: luminescence from secreted Gluc in supernatant 24 hours after transfection of HEK293 cells; circular RNA encoding Gluc with the named IRES (UTR truncated to 675 nt)
molecule,measurement,value
B1,Expression,4.37E+05
B2,Expression,2.20E+08
B3,Expression,2.00E+08
B4,Expression,1.87E+08
B5,Expression,2.15E+08
B6,Expression,6.25E+07
